Test results as given in US20200317768A1 (published 2020).
Changes are numbered by the printed parent chain. Names may count otherwise.

B1: M103205H795-MY533 / M103202L889-SK1 (antibody, human IgG1, kappa)
heavy: QVTLKESGPVLVKPTETLTLTCTVSGIDLSHDDISWVRQAPGKGLEWVGIISYAGSTYYASWAKGRLTISKDTSKNQVVLTMTNMDPVDTATYYCARGVPAYSHGGDLWGQGTLVTVSSASTKGPSVFPLAPSSKSTSGGTAALGCLVKDYFPEPVTVSWNSGALTSGVHTFPAVLQSSGLYSLSSVVTVPSSSLGTQTYICNVNHKPSNTKVDKKVEPKSCDKTHTCPPCPAPEWLTGPVVFLFPPKPKDTLMISRTPEVTCVVVDVSDEDPEVKFNWYVDGVEVHNAKTKPREELYNSTYRVVSVLTVLHQDWLNGKEYKCKVSNKALPKPIEKTISKAKGQPREPQVYTLPPSREEMTKNQVSLTCLVKGFYPSDIAVEWESNGQPENNYKTTPPVLDSDGSFFLYSKLTVDKSRWQQGNVFSCSVMHEALHNHYTQKSLSLSP
light: DIVMTQSPATLSLSPGERATLSCTSSQSVYHANWLSWFQQKPGQPPKLLIYWASTLAYGVPSRFSGSGSGTDFTLTISSLQPEDAATYYCAGGYGGGRYAFGQGTKVEIKRTVAAPSVFIFPPSDEQLKSGTASVVCLLNNFYPREAKVQWKVDNALQSGNSQESVTEQDSKDSTYSLSSTLTLSKADYEKHKVYACEVTHQGLSSPVTKSFNRGEC
B2: M103205H795-MY534 / M103202L889-SK1 (antibody, human IgG1, kappa)
heavy: B1 heavy with W236L
light: B1 light
B3: M103205H795-MY536 / M103202L889-SK1 (antibody, human IgG1, kappa)
heavy: B1 heavy with A233G, L297Q
light: B1 light
B4: M103205H795-MY538 / M103202L889-SK1 (A231G/L234W/G236T/H268D/Q295L/A330K, as in Table 23B) (antibody, human IgG1, kappa)
heavy: B1 heavy with A233G, V241S
light: B1 light
B5: M103205H795-MY535 / M103202L889-SK1 (antibody, human IgG1, kappa)
heavy: B1 heavy with A233G, V241S, L297Q
light: B1 light
B6: M103205H795-MY537 / M103202L889-SK1 (antibody, human IgG1, kappa)
heavy: B1 heavy with A233G
light: B1 light

biological target: T1, human FcγRIIIaV extracellular domain, C-terminal His-tag (human, UniProt P08637 17-208); assay: SPR (BIACORE); KD of SG1 / KD of variant;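 note: relative to parent M103205H795-SG1 carrying the SG1 human heavy chain constant region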
T1 construct: also called FcgRIIIaV; not shown: His-tag added to C-terminus
T1 sequence (P08637 17-208 F176V): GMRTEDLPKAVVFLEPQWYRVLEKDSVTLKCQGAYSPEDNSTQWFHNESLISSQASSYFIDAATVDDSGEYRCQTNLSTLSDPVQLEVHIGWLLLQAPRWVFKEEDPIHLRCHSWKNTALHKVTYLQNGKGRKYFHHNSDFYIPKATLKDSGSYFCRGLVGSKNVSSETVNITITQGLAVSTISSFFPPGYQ
Protocol: (§1) The kinetic analysis of interactions between these antibodies and FcγR was carried out using BIACORE® T200 or BIACORE® 4000 (GE Healthcare). HBS-EP+ (GE Healthcare) was used as the running buffer, and the measurement temperature was set to 25° C. A chip produced by immobilizing Protein A. Protein A/G or mouse anti-human IgG kappa light chain (BD Biosciences) onto a Series S Sensor Chip CM4 or CM5 (GE Healthcare) by the amine-coupling method was used. […] After the measurement, the antibody captured on the chip was washed off by allowing reaction with 10 mM glycine-HCl, pH1.5 and 25 mM NaOH so that the chip was regenerated and used repeatedly. The sensorgrams obtained as measurement results were analyzed by the 1:1 Langmuir binding model using the BIACORE® Evaluation Software to calculate the binding rate constant ka (L/mol/s) and dissociation rate constant kd (l/s), and the dissociation constant KD (mol/L) was calculated from these values. […] Regarding such interactions, KD values were calculated using the following 1:1 binding model described in BIACORE® T100 Software Handbook BR1006-48 Edition AE.
(§2) The behavior of interacting molecules according to the 1:1 binding model on BIACORE® can be described by Equation 1: Req=C·R max/(KD+C)+RI, wherein, Req is a plot of steady-state binding levels to analyte concentration. C is concentration, RI is bulk refractive index contribution in the sample, and Rmax is analyte binding capacity of the surface. When this equation is rearranged, KD can be expressed as Equation 2: KD=C·Rmax/(Req−RI)−C. KD can be calculated by substituting the values of Rmax, RI, and C into Equation 1 or Equation 2. From the current measurement conditions, RI=0, C=2 μmol/L can be used.

| Binder | KD fold (SG1 = 1) [fold] |
| --- | --- |
| B1 | 0.45 |
| B2 | 0.19 |
| B3 | 0.3 |
| B4 | 0.14 |
| B5 | 0.16 |
| B6 | 0.25 |

biological target: T2, human FcγRIIb extracellular domain, C-terminal His-tag (human, UniProt P31994 43-217); assay: SPR (BIACORE); KD of SG1 / KD of variant;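 note: relative to parent M103205H795-SG1 carrying the SG1 human heavy chain constant region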
T2 construct: also called humanFcgRIIb; not shown: His-tag added to C-terminus
T2 sequence: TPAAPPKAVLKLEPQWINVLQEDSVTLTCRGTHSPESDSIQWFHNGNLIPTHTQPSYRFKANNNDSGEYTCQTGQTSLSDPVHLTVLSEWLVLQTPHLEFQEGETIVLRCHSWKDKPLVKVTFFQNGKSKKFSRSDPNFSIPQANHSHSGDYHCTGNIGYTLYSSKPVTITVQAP
Protocol: as §1, §2

| Binder | KD fold (SG1 = 1) [fold] |
| --- | --- |
| B1 | 4.5 |
| B2 | 3.8 |
| B3 | 4.6 |
| B4 | 3.5 |
| B5 | 2.4 |
| B6 | 4.6 |

Biological target: T3, cynomolgus monkey FcγRIIa3 extracellular domain, C-terminal His-tag (cynomolgus monkey)
T3 construct: also called cyno FcγRIIa3; cynoFcgRIIa3; not shown: His-tag added to C-terminus
T3 chain: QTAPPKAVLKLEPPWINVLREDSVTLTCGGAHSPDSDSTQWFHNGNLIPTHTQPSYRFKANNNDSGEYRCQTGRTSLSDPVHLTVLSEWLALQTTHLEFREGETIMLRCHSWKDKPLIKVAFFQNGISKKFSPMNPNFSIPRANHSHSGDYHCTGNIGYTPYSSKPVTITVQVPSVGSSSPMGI
Assay: SPR (BIACORE); KD of SG1 / KD of variant;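 note: relative to parent M103205H795-SG1 carrying the SG1 human heavy chain constant region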
Protocol: as §1, §2

| Binder | KD fold (SG1 = 1) [fold] |
| --- | --- |
| B1 | 14.2 |
| B2 | 14.2 |
| B3 | 17.3 |
| B4 | 5.7 |
| B5 | 5.7 |
| B6 | 12.1 |

biological target: T4, human FcγRIIaH extracellular domain, C-terminal His-tag (human, UniProt P12318 34-217); assay: SPR (BIACORE); KD of SG1 / KD of variant;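 note: relative to parent M103205H795-SG1 carrying the SG1 human heavy chain constant region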
T4 construct: also called human FcγRIIa (type H); FcgRIIaH; not shown: His-tag added to C-terminus
T4 sequence: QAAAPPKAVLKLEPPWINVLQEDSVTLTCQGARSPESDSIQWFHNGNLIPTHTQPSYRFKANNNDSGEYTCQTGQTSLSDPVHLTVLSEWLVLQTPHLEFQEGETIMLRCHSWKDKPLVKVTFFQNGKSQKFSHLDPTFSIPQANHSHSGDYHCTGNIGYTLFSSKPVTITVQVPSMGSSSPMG
Protocol: as §1, §2

| Binder | KD fold (SG1 = 1) [fold] |
| --- | --- |
| B1 | 3.3 |
| B2 | 4.1 |
| B3 | 2.4 |
| B4 | 2.8 |
| B5 | 1.5 |
| B6 | 2.5 |

Biological target: T5, cynomolgus monkey FcγRIIb extracellular domain, C-terminal His-tag (cynomolgus monkey)
T5 construct: also called cyno FcγRIIb; cynoFcγRIIb; not shown: His-tag added to C-terminus
T5 chain: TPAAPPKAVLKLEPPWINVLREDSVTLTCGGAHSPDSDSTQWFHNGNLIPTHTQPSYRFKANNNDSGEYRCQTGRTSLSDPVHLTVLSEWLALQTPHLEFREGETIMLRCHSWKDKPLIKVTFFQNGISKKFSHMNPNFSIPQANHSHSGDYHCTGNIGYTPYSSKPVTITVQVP
Assay: SPR (BIACORE); KD of SG1 / KD of variant
Protocol: as §1, §2

| Binder | KD fold (SG1 = 1) [fold] |
| --- | --- |
| B1 | 7.2 |
| B2 | 4.3 |
| B3 | 4.5 |
| B4 | 6.4 |
| B5 | 4.4 |
| B6 | 3.6 |

Biological target: T6, human FcγRIIaR extracellular domain, C-terminal His-tag (human, UniProt P12318 34-217)
T6 construct: also called human FcγRIIa (type R); FcgRIIaR; not shown: His-tag added to C-terminus
T6 chain: T4 sequence with H134R
Assay: SPR (BIACORE); KD of SG1 / KD of variant
Protocol: as §1, §2

| Binder | KD fold (SG1 = 1) [fold] |
| --- | --- |
| B1 | 5.5 |
| B2 | 3.8 |
| B3 | 5 |
| B4 | 1.8 |
| B5 | 1.7 |
| B6 | 3 |

Biological target: T7, cynomolgus monkey FcγRIIa2 extracellular domain, C-terminal His-tag (cynomolgus monkey)
T7 construct: also called cyno FcγRIIa2; cynoFcgRIIa2; not shown: His-tag added to C-terminus
T7 chain: T3 chain with I127K, K130N, P133H, R142Q
Assay: SPR (BIACORE); KD of SG1 / KD of variant
Protocol: as §1, §2

| Binder | KD fold (SG1 = 1) [fold] |
| --- | --- |
| B1 | 7 |
| B2 | 3.9 |
| B3 | 4.6 |
| B4 | 4.6 |
| B5 | 3.6 |
| B6 | 4.6 |

Biological target: T8, cynomolgus monkey FcγRIIa1 extracellular domain, C-terminal His-tag (cynomolgus monkey)
T8 construct: also called cyno FcγRIIa1; cynoFcgRIIa1; not shown: His-tag added to C-terminus
T8 chain: T3 chain with T95P, A121T, S128A, P133H, N135D
Assay: SPR (BIACORE); KD of SG1 / KD of variant
Protocol: as §1, §2

| Binder | KD fold (SG1 = 1) [fold] |
| --- | --- |
| B1 | 4 |
| B2 | 2.5 |
| B3 | 2.7 |
| B4 | 3.3 |
| B5 | 2.1 |
| B6 | 2.7 |

biological target: T9, cynomolgus monkey FcγRIIIaS extracellular domain, C-terminal His-tag (cynomolgus monkey, UniProt A3RFZ7 21-206 (rhesus entry)); assay: SPR (BIACORE); KD of SG1 / KD of variant
T9 construct: also called cyno FcγRIIIaS; cynoFcγRIIIaS; not shown: His-tag added to C-terminus
T9 sequence (A3RFZ7 21-206): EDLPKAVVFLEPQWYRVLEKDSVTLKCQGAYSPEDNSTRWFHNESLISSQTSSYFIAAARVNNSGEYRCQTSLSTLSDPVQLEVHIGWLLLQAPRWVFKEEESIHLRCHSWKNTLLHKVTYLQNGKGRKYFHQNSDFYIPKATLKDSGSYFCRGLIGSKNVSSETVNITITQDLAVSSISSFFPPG
Protocol: as §1, §2

| Binder | KD fold (SG1 = 1) [fold] |
| --- | --- |
| B1 | 0.33 |
| B2 | 0.22 |
| B3 | 0.23 |
| B4 | 0.15 |
| B5 | 0.17 |
| B6 | 0.24 |
